{
  "source": "patent US20050004025A1",
  "target": "recombinant human a7 nicotinic acetylcholine receptor expressed in Xenopus oocytes (human) (UniProt P36544)",
  "sequence (P36544 23-502)": "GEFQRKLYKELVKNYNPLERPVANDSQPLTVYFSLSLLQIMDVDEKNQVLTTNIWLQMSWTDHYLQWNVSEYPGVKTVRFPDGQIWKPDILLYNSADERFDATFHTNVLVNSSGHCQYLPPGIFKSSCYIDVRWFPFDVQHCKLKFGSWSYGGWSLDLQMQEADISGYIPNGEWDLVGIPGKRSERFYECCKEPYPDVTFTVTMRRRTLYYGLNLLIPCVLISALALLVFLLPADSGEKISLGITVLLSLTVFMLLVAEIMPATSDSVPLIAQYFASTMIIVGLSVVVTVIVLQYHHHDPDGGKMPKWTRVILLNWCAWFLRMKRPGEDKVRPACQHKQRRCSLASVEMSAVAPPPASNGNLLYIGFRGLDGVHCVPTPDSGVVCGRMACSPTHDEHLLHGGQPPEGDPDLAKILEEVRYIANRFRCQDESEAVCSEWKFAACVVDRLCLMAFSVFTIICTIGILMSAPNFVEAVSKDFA",
  "assay": "cell-based or functional assay",
  "data": [
    {"substance": "recombinant SLURP-1 with C-terminal myc tag and His6 tag (highly purified SLURP-1) (from UniProt P55000 23-103) (ligand)", "values": [
      {"measurement": "EC50 of acetylcholine on the receptor after 2.5 min exposure to 200 pM SLURP-1 (FIG. 5C; control 178 µM; n=6 for each data point)", "result": 68, "unit": "µM"},
      {"measurement": "EC50 of acetylcholine on the receptor after SLURP-1 treatment (FIG. 5B; control 175 µM)", "result": 68, "unit": "µM"},
      {"measurement": "increase of the amplitude of acetylcholine-evoked macroscopic currents at 200 pM SLURP-1, compared with control (two-electrode voltage clamp, oocytes; n=6)", "result": 421, "unit": "%"},
      {"measurement": "increase of the amplitude of acetylcholine-evoked macroscopic currents at 20 nM SLURP-1, compared with control (two-electrode voltage clamp, oocytes; n=4)", "result": 1210, "unit": "%"}
    ]}
  ]
}
